# Test results: IntAct's records for PubMed 23622242
# B1: Double-stranded RNA-specific adenosine deaminase (Homo sapiens), P55265-1 (parent)
# chain: MNPRQGYSLSGYYTHPFQGYEHRQLRYQQPGPGSSPSSFLLKQIEFLKGQLPEAPVIGKQTPSLPPSLPGLRPRFPVLLASSTRGRQVDIRGVPRGVHLRSQGLQRGFQHPSPRGRSLPQRGVDCLSSHFQELSIYQDQEQRILKFLEELGEGKATTAHDLSGKLGTPKKEINRVLYSLAKKGKLQKEAGTPPLWKIAVSTQAWNQHSGVVRPDGHSQGAPNSDPSLEPEDRNSTSVSEDLLEPFIAVSAQAWNQHSGVVRPDSHSQGSPNSDPGLEPEDSNSTSALEDPLEFLDMAEIKEKICDYLFNVSDSSALNLAKNIGLTKARDINAVLIDMERQGDVYRQGTTPPIWHLTDKKRERMQIKRNTNSVPETAPAAIPETKRNAEFLTCNIPTSNASNNMVTTEKVENGQEPVIKLENRQEARPEPARLKPPVHYNGPSKAGYVDFENGQWATDDIPDDLNSIRAAPGEFRAIMEMPSFYSHGLPRCSPYKKLTECQLKNPISGLLEYAQFASQTCEFNMIEQSGPPHEPRFKFQVVINGREFPPAEAGSKKVAKQDAAMKAMTILLEEAKAKDSGKSEESSHYSTEKESEKTAESQTPTPSATSFFSGKSPVTTLLECMHKLGNSCEFRLLSKEGPAHEPKFQYCVAVGAQTFPSVSAPSKKVAKQMAAEEAMKALHGEATNSMASDNQPEGMISESLDNLESMMPNKVRKIGELVRYLNTNPVGGLLEYARSHGFAAEFKLVDQSGPPHEPKFVYQAKVGGRWFPAVCAHSKKQGKQEAADAALRVLIGENEKAERMGFTEVTPVTGASLRRTMLLLSRSPEAQPKTLPLTGSTFHDQIAMLSHRCFNTLTNSFQPSLLGRKILAAIIMKKDSEDMGVVVSLGTGNRCVKGDSLSLKGETVNDCHAEIISRRGFIRFLYSELMKYNSQTAKDSIFEPAKGGEKLQIKKTVSFHLYISTAPCGDGALFDKSCSDRAMESTESRHYPVFENPKQGKLRTKVENGEGTIPVESSDIVPTWDGIRLGERLRTMSCSDKILRWNVLGLQGALLTHFLQPIYLKSVTLGYLFSQGHLTRAICCRVTRDGSAFEDGLRHPFIVNHPKVGRVSIYDSKRQSGKTKETSVNWCLADGYDLEILDGTRGTVDGPRNELSRVSKKNIFLLFKKLCSFRYRRDLLRLSYGEAKKAARDYETAKNYFKKGLKDMGYGNWISKPQEEKNFYLCPV
# partner: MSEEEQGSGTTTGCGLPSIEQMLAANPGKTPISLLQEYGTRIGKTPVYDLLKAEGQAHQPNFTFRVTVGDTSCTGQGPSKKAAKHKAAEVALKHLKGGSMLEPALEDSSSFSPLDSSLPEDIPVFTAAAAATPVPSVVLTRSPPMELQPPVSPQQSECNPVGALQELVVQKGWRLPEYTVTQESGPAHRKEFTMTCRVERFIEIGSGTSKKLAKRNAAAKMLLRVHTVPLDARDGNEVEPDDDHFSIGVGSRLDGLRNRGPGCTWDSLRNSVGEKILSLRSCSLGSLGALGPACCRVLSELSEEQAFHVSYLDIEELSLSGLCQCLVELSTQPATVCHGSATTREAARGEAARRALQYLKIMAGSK
# Variants of: B1
# Settings: with trbp2_human TARBP2, Q15633
row,effect of a mutation on the interaction,Variant
1,disrupting interaction strength,K554E;K555A;K558A;K665E;K666A;K669A;K777E;K778A;K781A
